Test: Substrate specificity of recombinant LA2167-ZIS (GPP, NPP, EE-FPP or 2Z,6Z-FPP), GC-MS of products
Type: biochemical, Solanum habrochaites
Details: for substrate giving zingiberene (substrate specificity): no substrate, GPP, NPP, 2Z,6Z-FPP and E,E-FPP compared
Method: The synthetic gene was excised from the pUC57 cloning vector by digestion with BamHI and SalI and ligated into the pHIS8 vector previously linearized by digestion with the same enzymes. Recombinant clones were transformed into E. coli BL21 cells. A 5-mL log-phase culture of E. coli BL21 cells containing the expression vector was induced by addition of IPTG to a final concentration of 0.1 mM. The induced cells were incubated with agitation at 25° C. for 16 h, and then harvested by centrifugation at 10,000 g for 15 min. The cell pellet was resuspended in 1 mL extraction buffer (50 mM HEPES pH 8, 5% glycerol, 100 mM KCl, 7.5 mM MgCl2 containing 1 mM dithiothreitol (DTT)) prior to sonication. Soluble proteins were harvested after centrifugation at 10,000 g for 20 min. The supernatant was used for subsequent enzyme assays. Two micrograms of soluble protein were mixed with 10 μM of substrate (GPP, NPP, EE-FPP or 2Z,6Z-FPP (Echelon Biosciences Inc., Salt Lake City, Utah)) in a 2-mL glass vial. Reactions were allowed to proceed for 30 min at 30° C., and the glass vial headspace was collected with a 65 μm polydimethylsiloxane-divinylbenzene solid-phase microextraction fiber (Supelco, Bellefonte, Pa.). After 5 min of exposure at 42° C., the SPME fiber was retracted and transferred to the GC injector port for desorption at 200° C. onto the GC column for 3 min. The terpenes were separated on a DB5 column (10 m length, inner diameter and 0.25 um). The GC-MS analysis was performed as described previously […] et al. (Plant Physiol 153, 1212-1223 (2010)).

B1: LA2167-ZIS: sesquiterpene (zingiberene) synthase of Solanum habrochaites accession LA2167, SEQ ID NO:2; codon-optimized form lacking chloroplast transit sequence SEQ ID NO:4 (protein)
chain: MIVGYRSTIITLSHPKLGNGKTISSNAIFRRSCRVRCSHSTPSSMNGFEDARDRIRESFGKVELSPSSYDTAWVAMVPSKHSLNEPCFPQCLDWIIENQREDGSWGLNPSHPLLLKDSLSSTLACLLALTKWRVGDEQIKRGLGFIETQSWAIDNKDQISPLGFEIIFPSMIKSAEKLNLNLAINKRDSTIKRALQNEFTRNIEYMSEGFGELCDWKEIIKLHQRQNGSLFDSPATTAAALIYHQHDKKCYEYLNSILQQHKNWVPTMYPTKIHSLLCLVDTLQNLGVHRHFKSEIKKALDEIYRLWQQKNEEIFSNVTHCAMAFRLLRISYYDVSSDELAEFVDEEHFFATSGKYTSHVEILELHKASQLAIDHEKDDILDKINNWTRTFMEQKLLNNGFIDRMSKKEVELALRNFYIISDLAENRRYIKSYEENNFKILKAAYRSPNINNKDLFIFSIRDFELCQAQHQEELQQLKRWFEDCRLDQLGLSEQFISASYLCAIPIVPGPELSDARLVYAKYVMLLTIVDDHFESFASTDECLNIIELVERWDDYASVGYKSERVKVLFSMFYKSIEEIATIAEIKQGRSVKNHLINLWLKVMKLMLMERVEWCSGKTIPRIEEYLYVSSITFGSRLIPLTTQYFIGIKISKDLLESDEIYGLCNFTGIVLRLLNDLQDSKREQKEGSINLVTLLMKSISEEEAIMKMKEILEMKRRELFKMVLVQKKGSQLPQLCKEIFWRTCKWAHFTYSQTDRYRFPEEMENHIDEVFYKPLNH
modifications: Solanum habrochaites
GPP supplied as substrate
  product synthesis with geranyl diphosphate (GPP) as substrate: failed to synthesize any products
NPP supplied as substrate
  product synthesis with neryl diphosphate (NPP) as substrate: failed to synthesize any products
  substrate giving zingiberene (substrate specificity): only observed when 2Z,6Z-farnesyl diphosphate is used as substrate
Listed as zingiberene synthase from accession LA2167
  substrate giving zingiberene (substrate specificity): only uses 2Z,6Z-farnesyl diphosphate

— patent US9315793B2, “Enzymes that synthesize zingiberene” (Board of Trustees of Michigan State University, priority 2011, dated 2016)
